This note sets out measurements from patent US20200024330A1.

For orientation: IC50 means the concentration needed to halve the response being measured. The term IC80 denotes the concentration needed for an effect of 80%. A higher IC80 goes with weaker potency. The term IC90 denotes the concentration at which the effect reaches the 90% level. The low end stands for an effect from little substance, the high end for a need for much substance. In general, IC95 refers to the concentration at which the effect reaches the 95% level. Read a high IC95 as weaker potency.

Holding throughout (experiment): cell-based or functional assay
Assay [1] concerns the target HIV-1 IAVI-C3 envelope glycoprotein (Env) on pseudovirus (HIV-1).
The target of assay [2] is HIV-1 ADA Env (pseudovirus) (HIV-1 ADA).
Assay [3] concerns the target HIV-1 APV-17 envelope glycoprotein (Env) on pseudovirus (HIV-1).
The target in assay [4] is HIV-1 Env of isolate 92RW009 (HIV-1).
In assay [5] the target is HIV-1 Env of isolate 92RW020 (HIV-1).
For assay [6], the target named is HIV-1 Env of isolate 92RW021 (HIV-1).
The target of assay [7] is HIV-1 Env of isolate 92RW026 (HIV-1).
In assay [8] the target is HIV-1 Env of isolate MGRM-C-026 (subtype C), on pseudovirus (HIV-1).
Assay [9] concerns the target HIV-1 Env of isolate MGRM-C-027 (subtype C), on pseudovirus (HIV-1).
For assay [10], the target named is HIV-1 Env of isolate MGRM-Chronic-B-024 (subtype B) (HIV-1).
Assay [11] concerns the target HIV-1 Env of isolate MGRM-F1-018 (clade F), on pseudovirus (HIV-1).
In assay [12] the target is HIV-1 envelope glycoprotein (Env) of isolate 93TH305, on pseudovirus (HIV-1).
Assay [13] addresses HIV-1 envelope glycoprotein (Env) of isolate MGRM-Chronic-B-008, on pseudovirus (HIV-1).
The target of assay [14] is HIV-1 envelope glycoprotein (Env) of isolate MGRM-Chronic-B-023, on pseudovirus (HIV-1).
Assay [15] concerns the target HIV-1 APV17 Env (pseudovirus) (HIV-1).
Assay [16] deals with HIV-1 JRFL Env (pseudovirus) (HIV-1).
In assay [17] the target is HIV-1 MGRM-D-018 Env (pseudovirus) (HIV-1).
The target in assay [18] is HIV-1 APV17 envelope glycoprotein (Env) (HIV-1).
The target in assay [19] is HIV-1 JR-CSF Env F317A (HIV-1 isolate JR-CSF) (UniProt P20871).
Assay [20] deals with HIV-1 JR-CSF Env G324A (HIV-1 isolate JR-CSF) (UniProt P20871).
Assay [21] addresses HIV-1 JR-CSF Env I307A (HIV-1 JR-CSF) (UniProt P20871).
Assay [22] has as its target HIV-1 JR-CSF Env I309A (HIV-1 JR-CSF) (UniProt P20871).
Assay [23] concerns the target HIV-1 JR-CSF Env I326A (HIV-1 isolate JR-CSF) (UniProt P20871).
Assay [24] addresses HIV-1 JR-CSF Env I414A (HIV-1 (isolate JR-CSF)) (UniProt P20871).
For assay [25], the target named is HIV-1 JR-CSF Env I420A (HIV-1 (isolate JR-CSF)) (UniProt P20871).
Assay [26] addresses HIV-1 JR-CSF Env K421A (HIV-1 (isolate JR-CSF)) (UniProt P20871).
Assay [27] concerns the target HIV-1 JR-CSF Env L416A (HIV-1 (isolate JR-CSF)) (UniProt P20871).
For assay [28], the target named is HIV-1 JR-CSF Env N262A (HIV-1 JR-CSF) (UniProt P20871).
The target of assay [29] is HIV-1 JR-CSF Env N276A (HIV-1 JR-CSF) (UniProt P20871).
Assay [30] has as its target HIV-1 JR-CSF Env N295A (HIV-1 JR-CSF) (UniProt P20871).
The target in assay [31] is HIV-1 JR-CSF Env N301A (HIV-1 JR-CSF) (UniProt P20871).
Assay [32] deals with HIV-1 JR-CSF Env N302A (HIV-1 JR-CSF) (UniProt P20871).
Assay [33] addresses HIV-1 JR-CSF Env N339A (HIV-1 isolate JR-CSF) (UniProt P20871).
Assay [34] addresses HIV-1 JR-CSF Env N396A (HIV-1 (isolate JR-CSF)) (UniProt P20871).
Assay [35] has as its target HIV-1 JR-CSF Env Q422A (HIV-1 (isolate JR-CSF)) (UniProt P20871).
Assay [36] has as its target HIV-1 JR-CSF Env R315A (HIV-1 isolate JR-CSF) (UniProt P20871).
Assay [37] deals with HIV-1 JR-CSF Env R350A (HIV-1 isolate JR-CSF) (UniProt P20871).
Assay [38] addresses HIV-1 JR-CSF Env R419A (HIV-1 (isolate JR-CSF)) (UniProt P20871).
For assay [39], the target named is HIV-1 JR-CSF Env T320A (HIV-1 isolate JR-CSF) (UniProt P20871).
Assay [40] addresses HIV-1 JR-CSF Env V292A (HIV-1 JR-CSF) (UniProt P20871).
The target in assay [41] is HIV-1 Env of isolate MGRM-F1-008 (HIV-1).

Turning to 2G12 (antibody), the IC90 (pseudovirus neutralization) in assay [1] is above 50 µg/mL.
1443_C16 (PG16) (TCN-116) (antibody) showed an IC50 (ug/ml), neutralization in assay [2] of 0.004 µg/mL. Besides, the IC90 (pseudovirus neutralization) in assay [3] and in assay [1] was above 50 µg/mL each time.
The substance 1496_C09 (PG9) (TCN-109) (antibody) had an IC50 (ug/ml), neutralization in [2] of 0.2 µg/mL. Besides, the half-maximal inhibitory concentration (IC50) in [4] is 0.05 µg/mL; in assay [5], 0.141 µg/mL; in assay [6], 0.027 µg/mL; in [7] it was 0.164 µg/mL. Besides, the IC50 (µg/mL), pseudovirus neutralization in assay [8] amounted to 0.06 µg/mL; in [9], 5.36 µg/mL; in assay [10], 0.222 µg/mL. The IC50 (µg/mL), single-round pseudovirus neutralization in assay [11] stood at 0.019 µg/mL. Moreover, the IC50, pseudovirus neutralization was 8.12 µg/mL in assay [12], 8.78 µg/mL in [13] and 0.027 µg/mL in assay [14].
In [15], 4838_L06 (PGT-121) (antibody) displayed a neutralization IC80 of 0.371 µg/mL, a neutralization IC90 of 0.799 µg/mL and a neutralization IC95 of 1.55 µg/mL. In assay [16], this substance had a neutralization IC80 of 0.0806 µg/mL, a neutralization IC90 of 0.151 µg/mL and a neutralization IC95 of 0.267 µg/mL. In assay [17], this substance returned a neutralization IC80 of 0.0231 µg/mL, a neutralization IC90 of 0.0414 µg/mL and a neutralization IC95 of 0.0715 µg/mL.
In [15], 5141_B17 (PGT-126) (antibody) gave an IC50 of 0.501 µg/mL, an 80% effect concentration (IC80) of 4.43 µg/mL, an IC90 above 10 µg/mL and an IC95 above 10 µg/mL. For the same substance, in [16], the IC50 amounted to 0.014 µg/mL, the concentration for an effect of 80% (IC80) was 0.0454 µg/mL, the IC90 came out at 0.09 µg/mL and the IC95 is 0.169 µg/mL. In assay [17], the 50% inhibitory concentration (IC50) stood at 0.0093 µg/mL, the IC80 is 0.0391 µg/mL, the IC90 was 0.0918 µg/mL and the IC95 stood at 0.205 µg/mL.
As for PGT-121 (antibody), the IC50 neutralization in assay [18] worked out at 0.095 µg/mL. In addition, the Fold IC50 increase relative to wild-type came to 1.7 fold in assay [19]; 16.6 fold in assay [20]; 3.7 fold in assay [21]; 1.1 fold in [22]; 0.7 fold in assay [23]; 0.5 fold in assay [24]. Moreover, the Fold IC50 increase relative to wild-type in [25] is 3.3 fold; in [26] it was 1.3 fold; in assay [27], 0.6 fold; in assay [28] it was 1.1 fold; in assay [29] it was 0.8 fold; in assay [30], 0.6 fold. The Fold IC50 increase relative to wild-type in assay [31] worked out at 0.4 fold; in assay [32], 0.7 fold; in [33], 0.5 fold; in assay [34] it was 1.3 fold; in [35], 1.2 fold; in assay [36], 0.9 fold. The Fold IC50 increase relative to wild-type in assay [37] worked out at 0.8 fold; in assay [38] it was 1.8 fold; in assay [39], 1.2 fold; in assay [40] it was 2.7 fold.
As to PGT-122 (antibody), the IC50 neutralization in assay [18] was 0.522 µg/mL. The Fold IC50 increase relative to wild-type in assay [19] was found to be 3.4 fold; in assay [20], 12.5 fold; in assay [21], 3.8 fold; in assay [22], 2.1 fold; in assay [23], 0.6 fold; in [24] it was 0.5 fold. Further, the Fold IC50 increase relative to wild-type in assay [25] was 3.5 fold; in [26], 1.2 fold; in assay [27] it was 1 fold; in assay [28], 1.1 fold; in [29], 1.4 fold; in [30], 0.7 fold. The Fold IC50 increase relative to wild-type in [31] worked out at 0.4 fold; in assay [32], 1.1 fold; in [33], 0.4 fold; in assay [34], 1.1 fold; in assay [35] it was 1.1 fold; in assay [36], 0.5 fold. The Fold IC50 increase relative to wild-type in assay [37] is 0.6 fold; in assay [38], 0.8 fold; in assay [39] it was 0.7 fold; in assay [40], 1.3 fold.
On to PGV04 (antibody), for which the IC50 in assay [4] was found to be 0.108 µg/mL; in assay [5] it was 0.055 µg/mL; in assay [6], 0.038 µg/mL; in [7], 0.14 µg/mL. For the same substance, the IC50 (µg/mL), pseudovirus neutralization in assay [8] turned out to be 0.303 µg/mL; in assay [9], 2.76 µg/mL; in [10], 2.52 µg/mL; in assay [41], 1.03 µg/mL. This substance also returned an IC50 (µg/mL), single-round pseudovirus neutralization in [11] of 0.027 µg/mL. For the same substance, the IC50, pseudovirus neutralization in [12] is 0.255 µg/mL; in assay [13] it was 0.166 µg/mL; in assay [14] it was 0.139 µg/mL.
Regarding VRC01 (antibody), the IC50, pseudovirus neutralization in [41] was determined as 1.11 µg/mL.
As for b12 (antibody), the IC90 (pseudovirus neutralization) in assay [3] is above 50 µg/mL.
